Test results as given in patent US11547674B2, “Protein-polymer hybrid biomaterials” (The Regents of the University of California, priority 2018, dated 2023).

Experiments:
[1] = LDH enzyme kinetics (NADH generation, absorbance at 340 nm); type: biochemical, Bacillus stearothermophilus
Method: Enzyme kinetics was measured by absorbance increase at 340 nm in the generation of NADH. All assays were done at 25° C. and in 100 mM triethanolamine hydrochloride buffer following the protocols of Clarke et al. (Clarke, A. R., Wilks, H. M., Barstow, D. A., Atkinson, T., Chia, W. N. & Holbrook, J. J. An Investigation of the Contribution Made by the Carboxylate Group of an Active Site Histidine-Aspartate Couple to Binding and Catalysis in Lactate Dehydrogenase. Biochemistry 27, 1617-1622 (1988)]. Enzyme concentration of 100 nM were mixed with 10 mM NAD+ and 20 mM FBP with varying lactate concentrations for the assay. Km and Kcat were determined using GraphPad Michaelis-Menten curve fit.
Protocols for determining Kcat and Km of LDH were based on previous studies by Clarke et al.^48 Enzyme kinetics were measured by absorbance increases at 340 nm in the generation of NADH. All assays were done at 25° C. and in 100 mM triethanolamine hydrochloride buffer. Enzyme at 100 nM was mixed with 10 mM NAD^+ and 20 mM FBP with varying lactate concentrations. The initial slope of the absorbance vs. time was obtained for a range of lactate concentrations. This initial slope vs. concentration of lactate was plotted in GraphPad Prism and kinetic parameters (Km and kcat) were determined using a non-linear curve fit to the Michaelis-Menten equation.

[2] = Circular dichroism thermostability scan of LDH; type: physicochemical; conditions: ˜60° C.
Method: The tertiary structure and thermostability of WT and mutant LDH were obtained following the protocol of Molino et al. Jasco 810 spectropolarimeter equipped with Jasco Peltier temperature controller (Jasco, Easton, Md.) were used to measure the far-UV circular dichroism (CD). LDH samples were prepared at a concentration of 0.06 mg/ml in 50 mM potassium phosphate and 100 mM NaCl. Samples were scanned between 200-260 nm at 25 C at scanning speed of 10 nm/min in 0.1 pathlength quartz cells. Thermal unfolding was monitored at ellipticity at 217 nm from 60° C. to 90° C. at a heating rate of 1° C./min.

[3] = 25° C., 100 nM enzyme, 10 mM NAD+, 20 mM FBP, varying lactate

B1: Wt-LDH: thermostable recombinant wild-type lactate dehydrogenase, amino acid sequence from Bacillus stearothermophilus (protein, UniProt P00344 1-317, looked up)
L-lactate dehydrogenase: MKNNGGARVVVIGAGFVGASYVFALMNQGIADEIVLIDANESKAIGDAMDFNHGKVFAPKPVDIWHGDYDDCRDADLVVICAGANQKPGETRLDLVDKNIAIFRSIVESVMASGFQGLFLVATNPVDILTYATWKFSGLPHERVIGSGTILDTARFRFLLGEYFSVAPQNVHAYIIGEHGDTELPVWSQAYIGVMPIRKLVESKGEEAQKDLERIFVNVRDAAYQIIEKKGATYYGIAMGLARVTRAILHNENAILTVSAYLDGLYGERDVYIGVPAVINRNGIREVIEIELNDDEKNRFHHSAATLKSVLARAFTR
- catalytic activity of LDH [1]: catalytic
- Kcat [1, 3]: 8.8 s⁻¹
- Km [1, 3]: 38.5 mM
- denaturation at the NP reaction temperature [2]: does not denature
